The values below come from patent US20210355194A1 (published 2021).

Residue numbers refer to the chain shown, from its start. Read-outs that look alike come from different tables or passages of the source.

Experiment [1] concerns the target ACE2 (human, UniProt Q9BYF1 18-740). Nature of the experiment: SPR.
The target of experiment [2] is human ACE2 (human, UniProt Q9BYF1 18-740). Description: SPR.
Experiment [3] deals with SARS-CoV-2 S1 RBD (SARS-CoV-2, UniProt P0DTC2 319-537). Description: competition.
In experiment [4] the target is T1, SARS-CoV-2 membrane protein (SARS-CoV-2, UniProt P0DTC5 1-222). Description: SPR.
The target in experiment [5] is T2, SARS-CoV-2 S1 protein (SARS-CoV-2, UniProt P0DTC2 16-685). Nature of the experiment: SPR.
In experiment [6] the target is T3, SARS-CoV-2 S protein trimer (SARS-CoV-2, UniProt P0DTC2 14-1208). Nature of the experiment: SPR.
Experiment [7] concerns the target T1, SARS-CoV-2 membrane protein. Nature of the experiment: SPR. The source holds these as a separate data set.
Experiment [8] has the same target. Description: SPR. The source holds these as a separate data set.
Experiment [9] addresses T2, SARS-CoV-2 S1 protein. Description: SPR. This is another data set of the same source.
For experiment [10], the target named is T3, SARS-CoV-2 S protein trimer. Nature of the experiment: SPR. This is another data set of the same source.

Chain of ACE2 (Q9BYF1 18-740): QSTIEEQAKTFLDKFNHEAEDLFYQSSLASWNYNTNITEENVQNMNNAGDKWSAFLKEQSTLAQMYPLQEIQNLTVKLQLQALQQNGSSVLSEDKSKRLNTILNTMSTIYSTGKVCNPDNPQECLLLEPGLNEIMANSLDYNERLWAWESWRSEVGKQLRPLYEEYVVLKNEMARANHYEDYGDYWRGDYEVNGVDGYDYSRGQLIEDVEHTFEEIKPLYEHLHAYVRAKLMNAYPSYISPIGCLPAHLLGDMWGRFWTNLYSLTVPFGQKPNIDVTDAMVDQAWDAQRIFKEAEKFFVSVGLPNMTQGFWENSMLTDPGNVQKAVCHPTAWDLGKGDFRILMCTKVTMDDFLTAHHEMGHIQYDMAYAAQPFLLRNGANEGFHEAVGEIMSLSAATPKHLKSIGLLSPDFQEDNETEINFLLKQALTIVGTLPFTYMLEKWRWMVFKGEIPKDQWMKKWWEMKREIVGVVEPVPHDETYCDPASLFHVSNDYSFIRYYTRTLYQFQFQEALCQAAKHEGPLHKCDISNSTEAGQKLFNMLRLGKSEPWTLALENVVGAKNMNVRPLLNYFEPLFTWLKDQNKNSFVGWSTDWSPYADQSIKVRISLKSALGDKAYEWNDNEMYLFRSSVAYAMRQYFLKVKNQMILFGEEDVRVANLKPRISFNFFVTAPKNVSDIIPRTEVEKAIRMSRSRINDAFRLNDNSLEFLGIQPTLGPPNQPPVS
Chain of human ACE2 (Q9BYF1 18-740): as above

B1: ACE2 variant antibody 4-49 (VHH)
VHH: EVQLVESGGGLVQPGGSLRLSCAASGRTFGDYIMGWFRQAPGKERESVAAINWSAGYTAYADSVKGRFTISADNSKNTAYLQMNSLKPEDTAVYYCARASPNTGWHFDHWGQGTLVTVSS
For B1, in experiment [1], binding was characterised by a dissociation constant (Kd) of 2.3 nM. That is a single-digit nanomolar value.

B2: 3-7 (antibody, V domains shown)
VH: EVQLLESGGGLVQPGGSLRLSCAASGFMFGNYAMSWVRQAPGKGLEWVAAISGSGGSTYYADSVKGRFTISRDNSKNTLYLQMNSLRAEDTAVYYCAKDRGYSSSWYGGFDYWGQGTLVTVSS
VL: DIQMTQSPSSLSASVGDRVTITCRASQSIGRYLNWYQQKPGKAPKLLIYASSSLQSGVPSRFSGSGSGTDFTLTISSLQPEDFATYYCQQSYSLPRTFGQGTKVEIK
The molecule B2 registered an equilibrium dissociation constant (Kd) in experiment [2] of 0.326 nM.

B3: 2-9 (antibody, V domains shown)
VH: EVQLLESGGGLVQPGGSLRLSCAASGFTFPRYAMSWVRQAPGKGLEWVSTISGSGSTTYYADSVKGRFTISRDNSKNTLYLQMNSLRAEDTAVYYCARLIDAFDIWGQGTLVTVSS
VL: B2 VL with S28R, R31T, S51A, S53N, Q55E, S56G, S91N, L94T, P95T, R96W
Consider B3, for which, in experiment [3], the 50% inhibitory concentration (IC50) came to 4.69 nM. That is a single-digit nanomolar value.

B4: 10-27 (antibody, V domains shown)
VH: EVQLVESGGGLVQPGGSLRLSCAASGRTFRRYSMGWFRQAPGKEREFVASITPGGNTNYADSVKGRFTISADNSKNTAYLQMNSLKPEDTAVYYCASRRRWLTPYIFWGQGTLVTVSS
Regarding B4, the equilibrium dissociation constant (Kd) in [4] turned out to be 5.7 nM.

B5: 2-2 (antibody, V domains shown)
VH: EVQLLESGGGLVQPGGSLRLSCAASGFTFSRHAMNWVRQAPGKGLEWVSGISGSGDETYYADSVKGRFTISRDNSKNTLYLQMNSLRAEDTAVYYCARDLPASYYDSSGYYWHNGMDVWGQGTLVTVSS
VL: DIQMTQSPSSLSASVGDRVTITCRASQTINTYLNWYQQKPGKAPKLLIYSASTLQSGVPSRFSGSGSGTDFTLTISSLQPEDFATYYCQQSYSTFTFGQGTKVEIK
As to B5, the half-maximal inhibitory concentration (IC50) in [3] is 1.26 nM. The Kd in experiment [5] worked out at 74 nM; in experiment [6], 0.143 nM.

B6: 10-28 (antibody, V domains shown)
VH: EVQLVESGGGLVQPGGSLRLSCAASGSIFSIGMGWFRQAPGKEREFVARIWWRSGATYYADSVKGRFTISADNSKNTAYLQMNSLKPEDTAVYYCAAISIFGRLKWGQGTLVTVSS
Take B6: the equilibrium dissociation constant (Kd) in experiment [7] and in experiment [4] was 5.6 nM throughout.

B7: 10-20 (antibody, V domains shown)
VH: EVQLVESGGGLVQPGGSLRLSCAASGRTIRTMGWFRQAPGKEREFVATINSRGITNYADSVKGRFTISADNSKNTAYLQMNSLKPEDTAVYYCTTERDGLLWFRELFRPSWGQGTLVTVSS
B7: the Kd in experiment [8] came out at 66 nM.

B8: 2-6 (antibody, V domains shown)
VH: EVQLLESGGGLVQPGGSLRLSCAASGFTFSNYPMNWVRQAPGKGLEWVSTISGSGGNTFYADSVKGRFTISRDNSKNTLYLQMNSLRAEDTAVYYCVRHDEYSFDYWGQGTLVTVSS
VL: DIQMTQSPSSLSASVGDRVTITCRASQSIDTYLNWYQQKPGKAPKLLIYAASALASGVPSRFSGSGSGTDFTLTISSLQPEDFATYYCQQSYSAPPYTFGQGTKVEIK
With B8, the IC50 in experiment [3] was determined as 0.754 nM. The Kd in experiment [5] is 7.2 nM; in experiment [6], 0.036 nM; in experiment [9], 7.2 nM; in experiment [10], less than 0.036 nM.

B9: 2-5 (antibody, V domains shown)
VH: EVQLLESGGGLVQPGGSLRLSCAASGFTFSDFAMAWVRQAPGKGLEWVSAISGSGDITYYADSVKGRFTISRDNSKNTLYLQMNSLRAEDTAVYYCAREADGLHSPWHFDLWGQGTLVTVSS
VL: B8 VL with D30H
B9 had an IC50 in experiment [3] of 3.83 nM. The Kd in experiment [5] came out at 0.223 nM; in experiment [6] it was 1.7 nM.

B10: 9-11 (antibody, V domains shown)
VH: EVQLVESGGGLVQPGGSLRLSCAASGRTFGRRAMGWFRQAPGKEREFVAGISRGGGTNYADSVKGRFTISADNSKNTAYLQMNSLKPEDTAVYYCAAKGIWDYLGRRDFGDWGQGTLVTVSS
In experiment [4], B10 registered a Kd of 0.593 nM. This lies in the sub-nanomolar range.
